Data from PMC10027685, “Frozen fresh blood plasma preserves the functionality of native human α2-macroglobulin” (Scientific Reports, 2023).

Target: the molecule itself
Assay: SEC-MALS; Superose 6 10/300 Increase column, buffer C (20 mM Tris–HCl, 150 mM sodium chloride, pH 7.4), 25 °C; native and MA-treated hα2M from FR and NF plasma

B1: native human α2-macroglobulin (natural protein, UniProt P01023 24-1474, looked up)
chain: SVSGKPQYMVLVPSLLHTETTEKGCVLLSYLNETVTVSASLESVRGNRSLFTDLEAENDVLHCVAFAVPKSSSNEEVMFLTVQVKGPTQEFKKRTTVMVKNEDSLVFVQTDKSIYKPGQTVKFRVVSMDENFHPLNELIPLVYIQDPKGNRIAQWQSFQLEGGLKQFSFPLSSEPFQGSYKVVVQKKSGGRTEHPFTVEEFVLPKFEVQVTVPKIITILEEEMNVSVCGLYTYGKPVPGHVTVSICRKYSDASDCHGEDSQAFCEKFSGQLNSHGCFYQQVKTKVFQLKRKEYEMKLHTEAQIQEEGTVVELTGRQSSEITRTITKLSFVKVDSHFRQGIPFFGQVRLVDGKGVPIPNKVIFIRGNEANYYSNATTDEHGLVQFSINTTNVMGTSLTVRVNYKDRSPCYGYQWVSEEHEEAHHTAYLVFSPSKSFVHLEPMSHELPCGHTQTVQAHYILNGGTLLGLKKLSFYYLIMAKGGIVRTGTHGLLVKQEDMKGHFSISIPVKSDIAPVARLLIYAVLPTGDVIGDSAKYDVENCLANKVDLSFSPSQSLPASHAHLRVTAAPQSVCALRAVDQSVLLMKPDAELSASSVYNLLPEKDLTGFPGPLNDQDNEDCINRHNVYINGITYTPVSSTNEKDMYSFLEDMGLKAFTNSKIRKPKMCPQLQQYEMHGPEGLRVGFYESDVMGRGHARLVHVEEPHTETVRKYFPETWIWDLVVVNSAGVAEVGVTVPDTITEWKAGAFCLSEDAGLGISSTASLRAFQPFFVELTMPYSVIRGEAFTLKATVLNYLPKCIRVSVQLEASPAFLAVPVEKEQAPHCICANGRQTVSWAVTPKSLGNVNFTVSAEALESQELCGTEVPSVPEHGRKDTVIKPLLVEPEGLEKETTFNSLLCPSGGEVSEELSLKLPPNVVEESARASVSVLGDILGSAMQNTQNLLQMPYGCGEQNMVLFAPNIYVLDYLNETQQLTPEIKSKAIGYLNTGYQRQLNYKHYDGSYSTFGERYGRNQGNTWLTAFVLKTFAQARAYIFIDEAHITQALIWLSQRQKDNGCFRSSGSLLNNAIKGGVEDEVTLSAYITIALLEIPLTVTHPVVRNALFCLESAWKTAQEGDHGSHVYTKALLAYAFALAGNQDKRKEVLKSLNEEAVKKDNSVHWERPQKPKAPVGHFYEPQAPSAEVEMTSYVLLAYLTAQPAPTSEDLTSATNIVKWITKQQNAQGGFSSTQDTVVALHALSKYGAATFTRTGKAAQVTIQSSGTFSSKFQVDNNNRLLLQQVSLPELPGEYSMKVTGEGCVYLQTSLKYNILPEKEEFPFALGVQTLPQTCDEPKAHTSFQISLSVSYTGSRSASNMAIVDVKMVSGFIPLKPTVKMLERSNHVSRTEVSSNHVLIYLDKVSNQTLSLFFTVLQDVPVRDLKPAIVKVYDYYETDEFAIAEYNAPCSKDLGNA
modifications: β-cysteinyl-γ-glutamyl thioester bond C972–Q975; glycosylated
notes: human α2-macroglobulin, secreted glycosylated 1451-residue protein; homotetramer, a dimer of disulfide-linked dimers; Authentic protein from the plasma of anonymous healthy donors; also called hα2M; native hα2M
stoichiometry N: 4
